In publication PMC2771690 (Molecular cell, 2009):

Target: T1, proliferating cell nuclear antigen (PCNA), yeast (yeast, UniProt P15873 1-258)
T1 sequence (looked up): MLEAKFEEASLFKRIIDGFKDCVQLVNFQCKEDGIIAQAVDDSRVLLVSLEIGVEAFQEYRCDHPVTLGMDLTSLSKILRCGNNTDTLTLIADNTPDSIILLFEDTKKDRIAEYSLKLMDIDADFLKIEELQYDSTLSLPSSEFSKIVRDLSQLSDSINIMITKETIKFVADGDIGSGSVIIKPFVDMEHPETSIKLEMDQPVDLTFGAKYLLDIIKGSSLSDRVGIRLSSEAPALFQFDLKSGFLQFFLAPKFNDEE
Experiment: pull-down

binding result: binds
B1: GST-PINIT (Siz1 aa 172-315 as a C-terminal fusion to GST), wild-type (domain or fragment, S. cerevisiae, UniProt Q04195 172-315, looked up)
chain: VPTIHFKESPFYKIQRLIPELVMNVEVTGGRGMCSAKFKLSKADYNLLSNPNSKHRLYLFSGMINPLGSRGNEPIQFPFPNELRCNNVQIKDNIRGFKSKPGTAKPADLTPHLKPYTQQNNVELIYAFTTKEYKLFGYIVEMIT
